The supplement of paper PMC11316812
± gives the standard deviation of the averaged measurements.

What was measured:
MCF7 = assay: percentage of EdU-negative (G0-arrested) nuclei per well, 72 h; higher = more G0 arrest; conditions: reference: sequence is the full UniProt precursor, the tested protein was the secreted form or ectodomain
hTERT-HMEC = assay: as above; conditions: reference: sequence is the full UniProt precursor, the tested protein was the secreted form or ectodomain
[1] = protein concentration 0.0229925 µM
[2] = protein concentration 0.229925 µM
[3] = protein concentration 0.00714286 µM
[4] = protein concentration 0.0714286 µM
[5] = protein concentration 0.03125 µM
[6] = protein concentration 0.3125 µM
[7] = protein concentration 0.01477 µM
[8] = protein concentration 0.1477 µM
[9] = protein concentration 0.0225 µM
[10] = protein concentration 0.0294286 µM
[11] = protein concentration 0.294286 µM
[12] = protein concentration 0.01425 µM
[13] = protein concentration 0.1425 µM
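Further: secreted proteins added to cultured cells, EdU pulse at the end, nuclei found by Hoechst imaging, EdU status from nuclear versus surrounding ring intensity ratio, PBS as neutral control.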

MARPNKFLLWFCCFAWLCFPISLGSQASGGEAQIAASAELESGAMPWSLLQHIDERDRAGLLPALFKVLSVGRGGSPRLQPDSRALHYMKKLYKTYATKEGIPKSNRSHLYNTVRLFTPCTRHKQAPGDQVTGILPSVELLFNLDRITTVEHLLKSVLLYNINNSVSFSSAVKCVCNLMIKEPKSSSRTLGRAPYSFTFNSQFEFGKKHKWIQIDVTSLLQPLVASNKRSIHMSINFTCMKDQLEHPSAQNGLFNMTLVSPSLILYLNDTSAQAYHSWYSLHYKRRPSQGPDQERSLSAYPVGEEAAEDGRSSHHRHRRGQETVSSELKKPLGPASFNLSEYFRQFLLPQNECELHDFRLSFSQLKWDNWIVAPHRYNPRYCKGDCPRAVGHRYGSPVHTMVQNIIYEKLDSSVPRPSCVPAKYSPLSVLTIEPDGSIAYKEYEDMIATKCTCR
percentage of EdU-negative (MCF7; [1]): 24.683 ± 0.017% | percentage of EdU-negative (MCF7; [2]): 29.8 ± 2.2% | percentage of EdU-negative (hTERT-HMEC; [1]): 4.1 ± 0.078% | percentage of EdU-negative (hTERT-HMEC; [2]): 4.84 ± 1.5%

MGSGAGELGRAERLPVLFLFLLSLFCPALCEQIRYRIPEEMPKGSVVGNLATDLGFSVQELPTRKLRVSSEKPYFTVSAESGELLVSSRLDREEICGKKPACALEFEAVAENPLNFYHVNVEIEDINDHTPKFTQNSFELQISESAQPGTRFILEVAEDADIGLNSLQKYKLSLNPSFSLIIKEKQDGSKYPELALEKTLDREQQSYHRLVLTALDGGHPPLSGTTELRIQVTDANDNPPVFNRDVYRVSLRENVPPGTTVLQVSATDQDEGINSEITYSFYRTGQIFSLNSKSGEITTQKKLDFEETKEYSMVVEGRDGGGLVAQCTVEINIQDENDNSPEVTFHSLLEMILENAVPGTLIALIKIHDQDSGENGEVNCQLQGEVPFKIISSSKNSYKLVTDGTLDREQTPEYNVTITATDRGKPPLSSSISVILHIRDVNDNAPVFHQASYLVSVPENNPPGASIAQVCASDLDLGLNGQVSYSIMASDLEPLALASYVSMSAQSGVVFAQRAFDYEQLRTFELTLQARDQGSPALSANVSLRVLVGDRNDNAPRVLYPALGPDGSALFDMVPRAAEPGYLVTKVVAVDADSGHNAWLSYHVLQASEPGLFSLGLRTGEVRTARALGDRDAARQRLLVAVRDGGQPPLSATATLHLVFADSLQEVLPDITDRPVPSDPQAELQFYLVVALALISVLFLLAVILAVALRLRRSSSPAAWSCFQPGLCVKSGPVVPPNYSQGTLPYSYNLCVAHTGKTEFNFLKCSEQLSSGQDILCGDSSGALFPLCNSSESTSHPELQAPPNTDWRFSQAQRPGTSGSQNGDDTGTWPNNQFDTEMLQAMILASASEAADGSSTLGGGAGTMGLSARYGPQFTLQHVPDYRQNVYIPGSNATLTNAAGKRDGKAPAGGNGNKKKSGKKEKK [Q9Y5G0]
percentage of EdU-negative (MCF7; [3]): 26.7 ± 4% | percentage of EdU-negative (MCF7; [4]): 34.45 ± 0.24% | percentage of EdU-negative (hTERT-HMEC; [3]): 5.16 ± 0.12% | percentage of EdU-negative (hTERT-HMEC; [4]): 11.4 ± 4.3%

MLAPGSSPGQRGRLALQWRQVSWITCWIALYAVEALPTCPFSCKCDSRSLEVDCSGLGLTTVPPDVPAATRTLLLLNNKLSALPSWAFANLSSLQRLDLSNNFLDRLPRSIFGDLTNLTELQLRNNSIRTLDRDLLRHSPLLRHLDLSINGLAQLPPGLFDGLLALRSLSLRSNRLQNLDRLTFEPLANLQLLQVGDNPWECDCNLREFKHWMEWFSYRGGRLDQLACTLPKELRGKDMRMVPMEMFNYCSQLEDENSSAGLDIPGPPCTKASPEPAKPKPGAEPEPEPSTACPQKQRHRPASVRRAMGTVIIAGVVCGVVCIMMVVAAAYGCIYASLMAKYHRELKKRQPLMGDPEGEHEDQKQISSVA [Q8N967]
percentage of EdU-negative (MCF7; [5]): 25.5 ± 0.63% | percentage of EdU-negative (MCF7; [6]): 25.5 ± 2.5% | percentage of EdU-negative (hTERT-HMEC; [5]): 5.33 ± 1% | percentage of EdU-negative (hTERT-HMEC; [6]): 5.93 ± 0.73%

MAFSGSQAPYLSPAVPFSGTIQGGLQDGLQITVNGTVLSSSGTRFAVNFQTGFSGNDIAFHFNPRFEDGGYVVCNTRQNGSWGPEERKTHMPFQKGMPFDLCFLVQSSDFKVMVNGILFVQYFHRVPFHRVDTISVNGSVQLSYISFQNPRTVPVQPAFSTVPFSQPVCFPPRPRGRRQKPPGVWPANPAPITQTVIHTVQSAPGQMFSTPAIPPMMYPHPAYPMPFITTILGGLYPSKSILLSGTVLPSAQRFHINLCSGNHIAFHLNPRFDENAVVRNTQIDNSWGSEERSLPRKMPFVRGQSFSVWILCEAHCLKVAVDGQHLFEYYHRLRNLPTINRLEVGGDIQLTHVQT
percentage of EdU-negative (MCF7; [7]): 30.2 ± 1.1% | percentage of EdU-negative (MCF7; [5]): 26.3 ± 2.5% | percentage of EdU-negative (MCF7; [8]): 39.3 ± 0.83% | percentage of EdU-negative (MCF7; [6]): 26.3 ± 0.4% | percentage of EdU-negative (hTERT-HMEC; [7]): 5.5 ± 0.22% | percentage of EdU-negative (hTERT-HMEC; [5]): 4.97 ± 0.35% | percentage of EdU-negative (hTERT-HMEC; [8]): 9.26 ± 0.15% | percentage of EdU-negative (hTERT-HMEC; [6]): 4.66 ± 0.35%

MDPGLQQALNGMAPPGDTAMHVPAGSVASHLGTTSRSYFYLTTATLALCLVFTVATIMVLVVQRTDSIPNSPDNVPLKGGNCSEDLLCILKRAPFKKSWAYLQVAKHLNKTKLSWNKDGILHGVRYQDGNLVIQFPGLYFIICQLQFLVQCPNNSVDLKLELLINKHIKKQALVTVCESGMQTKHVYQNLSQFLLDYLQVNTTISVNVDTFQYIDTSTFPLENVLSIFLYSNSD
percentage of EdU-negative (MCF7; [9]): 28 ± 0.99% | percentage of EdU-negative (MCF7; protein concentration 0.225 µM): 27.5 ± 1.8% | percentage of EdU-negative (hTERT-HMEC; [9]): 4.46 ± 0.73% | percentage of EdU-negative (hTERT-HMEC; protein concentration 0.225 µM): 6.03 ± 0.4%

MQLRNPELHLGCALALRFLALVSWDIPGARALDNGLARTPTMGWLHWERFMCNLDCQEEPDSCISEKLFMEMAELMVSEGWKDAGYEYLCIDDCWMAPQRDSEGRLQADPQRFPHGIRQLANYVHSKGLKLGIYADVGNKTCAGFPGSFGYYDIDAQTFADWGVDLLKFDGCYCDSLENLADGYKHMSLALNRTGRSIVYSCEWPLYMWPFQKPNYTEIRQYCNHWRNFADIDDSWKSIKSILDWTSFNQERIVDVAGPGGWNDPDMLVIGNFGLSWNQQVTQMALWAIMAAPLFMSNDLRHISPQAKALLQDKDVIAINQDPLGKQGYQLRQGDNFEVWERPLSGLAWAVAMINRQEIGGPRSYTIAVASLGKGVACNPACFITQLLPVKRKLGFYEWTSRLRSHINPTGTVLLQLENTMQMSLKDLL
percentage of EdU-negative (MCF7; protein concentration 0.021 µM): 24.8 ± 0.73% | percentage of EdU-negative (MCF7; protein concentration 0.21 µM): 24.3 ± 0.28% | percentage of EdU-negative (hTERT-HMEC; protein concentration 0.021 µM): 5.25 ± 0.8% | percentage of EdU-negative (hTERT-HMEC; protein concentration 0.21 µM): 4.6 ± 0.74%

MASPGCLLCVLGLLLCGAASLELSRPHGDTAKKPIIGILMQKCRNKVMKNYGRYYIAASYVKYLESAGARVVPVRLDLTEKDYEILFKSINGILFPGGSVDLRRSDYAKVAKIFYNLSIQSFDDGDYFPVWGTCLGFEELSLLISGECLLTATDTVDVAMPLNFTGGQLHSRMFQNFPTELLLSLAVEPLTANFHKWSLSVKNFTMNEKLKKFFNVLTTNTDGKIEFISTMEGYKYPVYGVQWHPEKAPYEWKNLDGISHAPNAVKTAFYLAEFFVNEARKNNHHFKSESEEEKALIYQFSPIYTGNISSFQQCYIFD
percentage of EdU-negative (MCF7; [10]): 25 ± 0.49% | percentage of EdU-negative (MCF7; [11]): 25.9 ± 2.2% | percentage of EdU-negative (hTERT-HMEC; [10]): 4.45 ± 0.47% | percentage of EdU-negative (hTERT-HMEC; [11]): 4.7 ± 0.28%

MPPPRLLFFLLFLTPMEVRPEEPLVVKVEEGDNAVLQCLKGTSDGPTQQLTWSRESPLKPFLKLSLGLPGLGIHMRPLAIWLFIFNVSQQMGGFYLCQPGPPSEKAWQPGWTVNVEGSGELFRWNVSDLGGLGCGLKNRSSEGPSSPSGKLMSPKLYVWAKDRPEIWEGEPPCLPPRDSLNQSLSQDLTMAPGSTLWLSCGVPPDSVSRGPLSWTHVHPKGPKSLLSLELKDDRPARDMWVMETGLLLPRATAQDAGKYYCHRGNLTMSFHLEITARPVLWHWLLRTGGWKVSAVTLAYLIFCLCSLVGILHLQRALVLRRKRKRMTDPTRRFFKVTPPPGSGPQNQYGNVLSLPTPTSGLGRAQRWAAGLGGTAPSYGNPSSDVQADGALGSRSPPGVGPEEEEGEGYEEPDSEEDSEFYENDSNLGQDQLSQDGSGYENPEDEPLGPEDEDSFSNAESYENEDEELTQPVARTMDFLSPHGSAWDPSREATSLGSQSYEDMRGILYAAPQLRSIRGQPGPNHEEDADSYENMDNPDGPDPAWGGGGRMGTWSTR
percentage of EdU-negative (MCF7; [12]): 25.2 ± 1.1% | percentage of EdU-negative (MCF7; [13]): 26.2 ± 0.68% | percentage of EdU-negative (hTERT-HMEC; [12]): 5.66 ± 0.95% | percentage of EdU-negative (hTERT-HMEC; [13]): 8.73 ± 0.49%

MLWLFQSLLFVFCFGPGNVVSQSSLTPLMVNGILGESVTLPLEFPAGEKVNFITWLFNETSLAFIVPHETKSPEIHVTNPKQGKRLNFTQSYSLQLSNLKMEDTGSYRAQISTKTSAKLSSYTLRILRQLRNIQVTNHSQLFQNMTCELHLTCSVEDADDNVSFRWEALGNTLSSQPNLTVSWDPRISSEQDYTCIAENAVSNLSFSVSAQKLCEDVKIQYTDTKMILFMVSGICIVFGFIILLLLVLRKRRDSLSLSTQRTQGPAESARNLEYVSVSPTNNTVYASVTHSNRETEIWTPRENDTITIYSTINHSKESKPTFSRATALDNVV [Q96DU3]
percentage of EdU-negative (MCF7; [9]): 24.69 ± 0.12% | percentage of EdU-negative (MCF7; protein concentration 0.225 µM): 25 ± 1.3% | percentage of EdU-negative (hTERT-HMEC; [9]): 4.5 ± 0.13% | percentage of EdU-negative (hTERT-HMEC; protein concentration 0.225 µM): 5.94 ± 1.1%

MAPARAGCCPLLLLLLGLWVAEVLVRAKPKDMTSSQWFKTQHVQPSPQACNSAMSIINKYTERCKDLNTFLHEPFSSVAITCQTPNIACKNSCKNCHQSHGPMSLTMGELTSGKYPNCRYKEKHLNTPYIVACDPPQQGDPGYPLVPVHLDKVV [Q8TDE3]
percentage of EdU-negative (MCF7; [9]): 28.2 ± 0.91% | percentage of EdU-negative (MCF7; protein concentration 0.225 µM): 27.5 ± 4.3% | percentage of EdU-negative (hTERT-HMEC; [9]): 5.33 ± 0.52% | percentage of EdU-negative (hTERT-HMEC; protein concentration 0.225 µM): 5.09 ± 1.2%
